From the Human Domainome abundance scans (Beltran et al. 2025)

B1: Chromodomain-helicase-DNA-binding protein 4, residues 365 to 417; numbered along this chain, Q14839 (parent)
chain: YETDHQDYCEVCQQGGEIILCDTCPRAYHMVCLDPDMEKAPEGKWSCPHCEKE

Variants of: B1
Experiment: abundance fitness (aPCA) (normalised: wild type 0, dead -1); higher = more abundant; growth selection in yeast, the domain comes from the species named
Details: Homo sapiens

Abundance fitness, by site and new letter:
D34: Q -0.257; F -0.282; H -0.069; W 0.009; A -0.07; Y -0.118; N -0.091; L -0.025; S -0.146; T -0.047; G 0.037; V -0.094; K -0.314; R -0.145; P -0.149; C 0.018; I -0.463
P41: C -0.212; K -0.015; H -0.378; F 0.034; V -0.218; Q -0.109; E 0.07; D 0.022; T -0.105; N 0.435; M -0.06; G 0.151; L -0.092; R 0.123; Y 0.022; A 0.117; S -0.046; I 0.055
E42: A -0.178; C -0.026
C32: S -0.952; Y -1; P -0.794; T -0.94; W -0.936; Q -1.08; V -0.63
M37: F 0.24; E -0.392; R 0.054; Q -0.103; N 0.141; I -0.023; T -0.329; S 0.079; G -0.199; H -0.217; W 0.079; D -0.451; L -0.059; P 0.026; C 0.34; A -0.067; K -0.242; V 0.076
K39: S -0.203; N -0.264; Q -0.323; L -0.132; G 0.008; W -0.172; M 0.115; F -0.472; C -0.347; Y -0.077; P -0.094; R -0.082; E -0.077; A -0.06; T -0.217; V 0.1; H -0.237; I -0.125
P35: K -0.374; G 0.038; C -0.1; Y 0.272; H -0.001; Q -0.284; E -0.345; M -0.054; S 0.125; A -0.016; N -0.023; V -0.04; T 0.054; R 0.029; L -0.191; W -0.236
A40: L 0.095; Y -0.462; C -0.035; P -0.209; F 0.015; V -0.093; I 0.464; D 0.016; W -0.135; E -0.102; K -0.043; H 0.33; R -0.178; T -0.151; Q -0.208; N -0.351; G -0.157; S -0.126; M 0.043
D36: F -0.325; E 0.13; W -0.37; R -0.055; L -0.5; G -0.079; V -0.052; P -0.136; S 0.202; K 0.06; N 0.026; H 0.161; A -0.079; T 0.078; I -0.245; M -0.185; Y -0.657; Q -0.05
L33: N -0.547; C 0.026; S 0.141; Y -0.025; M -0.084; A 0.123; W 0.024; D -1.04; E -0.496; T 0.162; G -0.195; K -0.103; Q -0.114; F 0.022; P -0.404
E38: I -0.106; A -0.261; G -0.056; V -0.063; P -0.143; L -0.197; T -0.657; C -0.028; N -0.183; F 0.142; S -0.266; R -0.029; Q -0.19; W -0.281; H -0.079; D -0.074; K -0.244; M -0.784; Y -0.093
